The test concerns the target T1, KIF1C-SNAPf-3XFLAG, full-length KIF1C (human, UniProt O43896 1-1103, TMR via the SNAP-tag (in the TIRF assays)).
T1 sequence: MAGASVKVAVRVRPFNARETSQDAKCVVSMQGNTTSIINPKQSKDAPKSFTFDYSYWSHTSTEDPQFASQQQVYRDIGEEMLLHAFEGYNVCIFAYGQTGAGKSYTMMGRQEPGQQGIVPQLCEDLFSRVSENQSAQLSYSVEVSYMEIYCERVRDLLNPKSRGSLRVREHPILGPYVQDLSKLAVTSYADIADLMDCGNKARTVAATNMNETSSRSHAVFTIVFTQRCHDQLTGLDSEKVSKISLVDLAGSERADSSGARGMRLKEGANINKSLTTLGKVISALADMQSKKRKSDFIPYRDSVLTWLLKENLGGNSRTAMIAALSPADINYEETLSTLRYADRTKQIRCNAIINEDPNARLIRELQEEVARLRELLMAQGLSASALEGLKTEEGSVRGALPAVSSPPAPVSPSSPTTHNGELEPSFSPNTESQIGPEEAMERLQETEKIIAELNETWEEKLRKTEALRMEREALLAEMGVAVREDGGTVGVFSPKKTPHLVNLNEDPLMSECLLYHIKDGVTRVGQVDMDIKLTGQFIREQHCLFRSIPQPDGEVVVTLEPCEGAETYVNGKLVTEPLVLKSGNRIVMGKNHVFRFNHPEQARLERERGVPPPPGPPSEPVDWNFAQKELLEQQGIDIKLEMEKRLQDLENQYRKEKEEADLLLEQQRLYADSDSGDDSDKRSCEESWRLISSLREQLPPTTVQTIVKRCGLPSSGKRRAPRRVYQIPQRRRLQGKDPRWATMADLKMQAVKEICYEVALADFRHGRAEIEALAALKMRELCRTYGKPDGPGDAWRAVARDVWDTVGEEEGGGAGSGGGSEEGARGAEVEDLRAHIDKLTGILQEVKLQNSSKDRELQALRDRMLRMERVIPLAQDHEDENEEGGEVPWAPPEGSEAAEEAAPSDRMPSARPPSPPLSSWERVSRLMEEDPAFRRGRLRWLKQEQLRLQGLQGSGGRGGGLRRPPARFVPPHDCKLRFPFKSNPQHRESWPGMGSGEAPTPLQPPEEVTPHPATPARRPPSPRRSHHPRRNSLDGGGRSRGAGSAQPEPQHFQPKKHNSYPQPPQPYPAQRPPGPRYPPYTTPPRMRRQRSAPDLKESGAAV
Put plainly: single-molecule three-colour TIRF colocalisation on microtubules.

The values that follow come from publication doi:10.1101/508887 (bioRxiv, 2018).

B1: Halo-HOOK3(1-718)-3XFLAG, full-length HOOK3 (natural protein)
chain: MFSVESLERAELCESLLTWIQTFNVDAPCQTVEDLTNGVVMAQVLQKIDPAYFDENWLNRIKTEVGDNWRLKISNLKKILKGILDYNHEILGQQINDFTLPDVNLIGEHSDAAELGRMLQLILGCAVNCEQKQEYIQAIMMMEESVQHVVMTAIQELMSKESPVSAGNDAYVDLDRQLKKTTEELNEALSAKEEIAQRCHELDMQVAALQEEKSSLLAENQVLMERLNQSDSIEDPNSPAGRRHLQLQTQLEQLQEETFRLEAAKDDYRIRCEELEKEISELRQQNDELTTLADEAQSLKDEIDVLRHSSDKVSKLEGQVESYKKKLEDLGDLRRQVKLLEEKNTMYMQNTVSLEEELRKANAARSQLETYKRQVVELQNRLSEESKKADKLDFEYKRLKEKVDSLQKEKDRLRTERDSLKETIEELRCVQAQEGQLTTQGLMPLGSQESSDSLAAEIVTPEIREKLIRLQHENKMLKLNQEGSDNEKIALLQSLLDDANLRKNELETENRLVNQRLLEVQSQVEELQKSLQDQGSKAEDSVLLKKKLEEHLEKLHEANNELQKKRAIIEDLEPRFNNSSLKIEELQEALRKKEEEMKQMEERYKKYLEKAKSVIRTLDPKQNQGAAPEIQALKNQLQERDRLFHSLEKEYEKTKSQREMEEKYIVSAWYNMGMTLHKKAAEDRLASTGSGQSFLARQRQATSSRRSYPGHVQPATAR
modifications: Alexa-488 via the HaloTag (in the TIRF assays)
B1: the binding result is on record as “binds”.
